The data set can be described thus: immunoblot, N-terminal Flag vs C-terminal epitopes, ldlD cells. The conditions noted are these: glycan lost; control: WT Ser49-β1AR, ldlD cells with Gal/GalNAc. Background: Immunoblotting shows a protein as a band on a membrane.

For β1-adrenergic receptor (β1AR): N15A, the “other: proteolytic processing” value is given as “no change”. As to “β1-adrenergic receptor (β1AR): ldlD cells without Gal/GalNAc”, the “other: proteolytic processing” value is given as “increases”.

The record behind these values is PMC5554155.
